Molecular target: T1, Polycystin 2 (PC2), human, endogenous in PTEC (human (endogenous in PTEC), UniProt Q13563 1-968)
T1 construct: Polycystin 2 (PC2), encoded by the PKD2 gene, human, endogenous in PTEC; no construct, no residues stated; Endogenous protein, immunoprecipitated with anti-Polycystin-2 antibodies (Santa Cruz)
T1 sequence (looked up): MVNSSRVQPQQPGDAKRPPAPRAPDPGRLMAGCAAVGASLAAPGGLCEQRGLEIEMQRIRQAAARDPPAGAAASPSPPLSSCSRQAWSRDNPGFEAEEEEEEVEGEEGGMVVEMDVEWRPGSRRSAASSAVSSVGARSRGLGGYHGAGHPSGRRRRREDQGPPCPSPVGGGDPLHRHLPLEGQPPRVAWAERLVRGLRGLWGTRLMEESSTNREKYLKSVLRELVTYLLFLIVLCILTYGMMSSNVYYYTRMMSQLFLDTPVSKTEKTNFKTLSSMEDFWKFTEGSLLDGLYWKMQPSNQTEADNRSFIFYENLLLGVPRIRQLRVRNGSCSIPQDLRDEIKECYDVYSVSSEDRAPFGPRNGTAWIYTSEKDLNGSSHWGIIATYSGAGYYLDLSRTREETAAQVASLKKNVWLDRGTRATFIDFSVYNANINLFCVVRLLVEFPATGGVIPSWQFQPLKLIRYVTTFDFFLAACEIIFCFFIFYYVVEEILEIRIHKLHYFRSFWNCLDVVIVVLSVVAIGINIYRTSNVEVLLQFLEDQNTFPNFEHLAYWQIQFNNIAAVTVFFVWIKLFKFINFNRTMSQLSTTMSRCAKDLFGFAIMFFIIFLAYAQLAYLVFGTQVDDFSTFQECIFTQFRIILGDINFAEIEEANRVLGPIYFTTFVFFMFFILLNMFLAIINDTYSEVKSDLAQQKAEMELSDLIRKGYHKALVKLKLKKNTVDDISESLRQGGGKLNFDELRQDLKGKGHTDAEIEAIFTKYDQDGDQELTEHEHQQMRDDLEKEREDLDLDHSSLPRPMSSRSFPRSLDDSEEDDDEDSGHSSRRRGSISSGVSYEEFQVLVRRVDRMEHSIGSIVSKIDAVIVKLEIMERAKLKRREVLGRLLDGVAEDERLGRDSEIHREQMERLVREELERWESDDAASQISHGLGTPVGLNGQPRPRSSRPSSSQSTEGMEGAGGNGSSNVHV
Test: co-IP; PTEC wt and PC1KD (PKD1 knocked down) lysates (1% Triton X-100, 150 mM NaCl, 25 mM Hepes pH 7.4); anti-PC2 antibodies coupled to protein A-Sepharose, overnight; immunoblot with anti-CaSR and anti-PC2
Conditions: partners not purified

amount of CaSR immunoprecipitated with PC2 in PC1KD cells relative to wt (ratio CaSR/PC2): 1.34 fold (wt = 1)
B1: Calcium Sensing Receptor (CaSR), human, endogenous in PTEC (receptor, human (endogenous in PTEC), UniProt P41180 20-1078, looked up)
chain: YGPDQRAQKKGDIILGGLFPIHFGVAAKDQDLKSRPESVECIRYNFRGFRWLQAMIFAIEEINSSPALLPNLTLGYRIFDTCNTVSKALEATLSFVAQNKIDSLNLDEFCNCSEHIPSTIAVVGATGSGVSTAVANLLGLFYIPQVSYASSSRLLSNKNQFKSFLRTIPNDEHQATAMADIIEYFRWNWVGTIAADDDYGRPGIEKFREEAEERDICIDFSELISQYSDEEEIQHVVEVIQNSTAKVIVVFSSGPDLEPLIKEIVRRNITGKIWLASEAWASSSLIAMPQYFHVVGGTIGFALKAGQIPGFREFLKKVHPRKSVHNGFAKEFWEETFNCHLQEGAKGPLPVDTFLRGHEESGDRFSNSSTAFRPLCTGDENISSVETPYIDYTHLRISYNVYLAVYSIAHALQDIYTCLPGRGLFTNGSCADIKKVEAWQVLKHLRHLNFTNNMGEQVTFDECGDLVGNYSIINWHLSPEDGSIVFKEVGYYNVYAKKGERLFINEEKILWSGFSREVPFSNCSRDCLAGTRKGIIEGEPTCCFECVECPDGEYSDETDASACNKCPDDFWSNENHTSCIAKEIEFLSWTEPFGIALTLFAVLGIFLTAFVLGVFIKFRNTPIVKATNRELSYLLLFSLLCCFSSSLFFIGEPQDWTCRLRQPAFGISFVLCISCILVKTNRVLLVFEAKIPTSFHRKWWGLNLQFLLVFLCTFMQIVICVIWLYTAPPSSYRNQELEDEIIFITCHEGSLMALGFLIGYTCLLAAICFFFAFKSRKLPENFNEAKFITFSMLIFFIVWISFIPAYASTYGKFVSAVEVIAILAASFGLLACIFFNKIYIILFKPSRNTIEEVRCSTAAHAFKVAARATLRRSNVSRKRSSSLGGSTGSTPSSSISSKSNSEDPFPQPERQKQQQPLALTQQEQQQQPLTLPQQQRSQQQPRCKQKVIFGSGTVTFSLSFDEPQKNAMAHRNSTHQNSLEAQKSSDTLTRHEPLLPLQCGETDLDLTVQETGLQGPVGGDQRPEVEDPEELSPALVVSSSQSFVISGGGSTVTENVVNS
notes: Calcium sensing receptor (CaSR), human, endogenous in PTEC; no construct, no residues stated; Endogenous protein, detected with a monoclonal anti-CaSR antibody (Sigma C0493); also called extracellular calcium sensing receptor

— PMC12732451, “Functional Coupling of Calcium-Sensing Receptor and Polycystin-2 in Renal Epithelial Cells: Physiological Role and Potential Therapeutic Target in Polycystic Kidney Disease” (International Journal of Molecular Sciences, 2025)
